Article PMC546161

What was measured:
[1] = target: His-Cdt1(193–447) (Xenopus) (UniProt Q9I9A7); assay: SEC + other: glycerol gradient sedimentation
[2] = target: His-Cdt1(193–447) (Xenopus) (UniProt Q9I9A7); assay: Coomassie densitometry of the purified complex on SDS-PAGE

Sequence of UniProt Q9I9A7 (Q9I9A7 193-447): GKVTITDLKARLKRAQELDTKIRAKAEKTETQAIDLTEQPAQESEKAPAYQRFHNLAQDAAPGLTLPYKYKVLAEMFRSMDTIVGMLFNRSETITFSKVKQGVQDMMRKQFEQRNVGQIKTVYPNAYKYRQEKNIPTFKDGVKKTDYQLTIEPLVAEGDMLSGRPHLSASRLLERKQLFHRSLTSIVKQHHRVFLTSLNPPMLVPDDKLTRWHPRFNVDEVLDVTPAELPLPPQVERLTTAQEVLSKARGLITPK

## mini-geminin (residues 87–168), S-tagged (domain or fragment)
[1]
  stoichiometry N (mini-geminin per Cdt1(193–447)): 2
[2]
  stoichiometry N (mini-geminin per Cdt1(193–447)): 1.9
